Residue numbers refer to the chain shown, from its start. Names may count otherwise. Where two headings read alike, the source gives them in different places.
Legend:
[1] = test system: soybean EPSPS; test: kcat gly: enzyme turnover under application conditions, soybean variants; assay type: biochemical; details: for kcat gly: soybean variants
Description: (§1) A more straight-forward, accurate and meaningful parameter is one in which one rate measurement is performed under presumed in vivo conditions, if known. To establish a set of conditions that mimic those under which the mutated enzyme needs to perform, the concentrations of PEP and S3P were set low (30 uM, subject to the sensitivity of assay conditions) to approach the presumed intracellular concentrations (˜15 uM, the approximate values of KM for both PEP and S3P). Glyphosate is included at 1 mM. The pH is set at 7.0 and ionic strength at 100 mM KCl, also to mimic known in vivo conditions. Ethylene glycol is present at 5% (v/v) to approximate the dielectric constant of intracellular fluid. The parameter is termed “enzyme turnover under application conditions”, which is herein shortened to “kcat gly”. The conventional formatting of the expression “kcat” is not used, to avoid this term being characterized as a standard kinetic constant.
EPSPS activity was determined by quantifying the phosphate generated from the EPSPS reaction. Release of inorganic phosphate was coupled to its reaction with 2-amino-6-mercapto-7-methylpurine ribonucleoside (MESG), catalyzed by purine nucleoside phosphorylase, according to previously described protocols. To determine the kcat gly, enzyme preparations were normalized to 0.1 mg/ml and four- to six-microliter aliquots of normalized enzyme were added to the wells of a low UV-absorbing 96-well assay plate (Greiner UV-Star). Reactions were started with the addition of 2×147 μl of reaction mixture containing 25 mM Hepes, pH 7.0, 100 mM KCl, 5% ethylene glycol, 30 μM each of PEP and S3P, 0.15 mM MESG, 1.5 U/ml purine nucleoside phosphorylase (Sigma N8264) and 1 mM glyphosate. Absorbance was monitored at 4 sec intervals for 50 sec with a Spectramax plate reader (Molecular Devices). […] Division by the enzyme concentration (0.04 to 0.1 uM, depending on activity) yields “kcat gly” in units of min^−1. […]
A library was constructed and screened as above. […] The library was constructed, screened and evaluated by the methods described in Examples 1 and 2.

[2] = test system: rice EPSPS; test: kcat gly: enzyme turnover under application conditions, rice orthologs; assay type: biochemical, rice (Oryza sativa); details: Table 5
Description: as §1
(§2) EPSPS activity was determined by quantifying the phosphate generated from the EPSPS reaction. Release of inorganic phosphate was coupled to its reaction with 2-amino-6-mercapto-7-methylpurine ribonucleoside (MESG), catalyzed by purine nucleoside phosphorylase, according to previously described protocols. To determine the kcat gly, enzyme preparations were normalized to 0.1 mg/ml and four- to six-microliter aliquots of normalized enzyme were added to the wells of a low UV-absorbing 96-well assay plate (Greiner UV-Star). Reactions were started with the addition of 2×147 μl of reaction mixture containing 25 mM Hepes, pH 7.0, 100 mM KCl, 5% ethylene glycol, 30 μM each of PEP and S3P, 0.15 mM MESG, 1.5 U/ml purine nucleoside phosphorylase (Sigma N8264) and 1 mM glyphosate. Absorbance was monitored at 4 sec intervals for 50 sec with a Spectramax plate reader (Molecular Devices). […] Division by the enzyme concentration (0.04 to 0.1 uM, depending on activity) yields “kcat gly” in units of min^−1.
Only variable positions are shown. Naturally occurring differences in the rice sequence from the maize sequence are shown. The mutations designed to create rice orthologs of selected maize variants are shown. Genes designed to encode the rice orthologs were synthesized by a commercial provider and expressed and purified as described above.
Fitness is indicated by the parameter kcat gly, defined in Example 1.

[3] = target: CP4 EPSPS (Agrobacterium sp., UniProt Q9R4E4); test: substrate saturation kinetic analysis (kcat, Km, Ki); assay type: biochemical, Agrobacterium sp. strain CP4
Description: as §2
Combinatorial shuffling, maize native EPSPS—The mutations discovered were used to construct a combinatorial library designed to explore combinations of the desensitizing mutations in novel sequence contexts provided by the newly identified neutral mutations. Note that the amino acid position numbering in this Example 10 refers to the relative position of native maize EPSPS without the N-terminal Met. Therefore, G101A in this Example would be G102A in reference to SEQ ID NO: 1, wherein the maize EPSPS sequence has a Met added at the N-terminal. The diversity used was the same with the addition of G101A, T102 (IALGV) and P106(WA). In all, 43 substitutions at 29 positions were selected. The library was synthesized entirely from oligonucleotides, using the known technique of synthetic shuffling and was termed NatFS (Native, fully synthetic). The vector DNA of the library was transformed into the BL21(DE3) Tuner-AroA knockout strain and the cells were plated onto M9 medium containing either 30 mM glyphosate and 30 μM of the lac operon inducer isopropyl β-D-1-thiogalactopyranoside (IPTG) or 50 mM glyphosate and no IPTG. The 184 colonies that grew on either plate were picked and subjected to a second tier of screening in which EPSPS proteins were purified and activity measured at high (200 μM) and low (50 μM) PEP and S3P, with or without 10 μM glyphosate. Selected variants were subjected to substrate saturation kinetic analysis.

[4] = target: EPSPS from Agrobacterium sp. strain CP4 (Agrobacterium sp., UniProt Q9R4E4); test: kgly: enzyme turnover at 30 μM PEP and S3P, 1 mM glyphosate, CP4 EPSPS; assay type: biochemical
Text: A customized parameter for predicting performance in the treated plant that would be a more accurate representation than kcat/Km*Ki. […] However, kcat/Km*Ki may be inadequate for predicting the reaction velocity under the conditions of the application (plants sprayed with glyphosate) because it may neglect concentrations of substrate and inhibitor, factors that are not intrinsic to the enzyme, but on which the reaction rate depends. Therefore, libraries derived from C1 on in FIG. 2 were evaluated with a single rate measurement designed to take all factors in the rate equation for competitive inhibition into account. […] Glyphosate was included at 1 mM, a concentration attainable in tissues, especially meristems, receiving metabolite flow from treated leaves. The pH (7.0), ionic strength (100 mM KCl) and co-solvent concentration (5% ethylene glycol) were also intended to mimic in vivo conditions. The unit for the parameter is reaction rate (μM·min^−1) per enzyme concentration (μM), or min^−1, describing the enzyme turnover under application conditions, which we abbreviate as “kgly”. Although individual kinetic parameters for key variants were obtained, kgly was adopted a parameter needed both for medium throughput screening and for ultimate evaluation of fitness.

B1: Gm F3: soybean EPSPS variant from combinatorial library, SEQ ID NO: 13 (protein)
chain: MAAAEKPSTSPEIVLEPIKDFSGTITLPGSKSLSNRILLLAALSEGTTVVDNLLYSEDIHYMLGALRTLGLRVEDDKTTKQAIVEGCGGLFPTSKESKDEINLFCGNAATAMRPLTAAVVAAGGNASYVLDGVPRMRERPIGDLVAGLKQLGADVDCFLGTNCPPVRVNGKGGLPGGKVKLSGSVSSQYLTALLMAAPLALGDVEIEIVDKLISVPYVEMTLKLMERFGVSVEHSGNWDRFLVHGGQKYKSPGNAFVEGDASSASYLLAGAAITGGTITVNGCGTSSLQGDVKFAEVLEKMGAKVTWSENSVTVSGPPRDFSGRKVLRGIDVNMNKMPDVAMTLAVVALFANGPTAIRDVASWRVKESERMIAICTELRKLGATVEEGPDYCVITPPEKLNVTAIDTYGDHRMAMAFSLAACGDVPVTIKDPGCTRKTFPDYFEVLERLTKH
modifications: Glycine max
**Q.** With B1 as the molecule, how does the kcat gly [1] read?
**A.** 0.938 s⁻¹

B2: Gm F3-V340A: soybean EPSPS variant Gm F3 with V340A, SEQ ID NO: 14 (protein)
chain: B1 chain with V340A
modifications: Glycine max
**Q.** B2 was tested. Which “fitness (kcat gly) compared with Gm F3” value [1] did it give?
**A.** significant fitness improvement

B3: Gm F3-02-A7: soybean EPSPS variant, SEQ ID NO: 15 (protein)
chain: B1 chain with V340A
modifications: Glycine max
**Q.** How did the kcat gly [1] turn out when B3 was run?
**A.** 1.34 s⁻¹

B4: Os F3-88: rice EPSPS ortholog of Zm F3-88, SEQ ID NO: 19 (protein, listed as Oryza sativa)
chain: MAKAEEIVLQPIREISGAVQLPGSKSLSNRILLLSALSEGTTVVDNLLNSEDVGYMLEALKALGLSVEADKVAKRAVVVGCGGKFPVEKDAKEEVQLFCGNAATAMRPLTAAVTAAGGNATYVLDGVPRMRERPIGDLVVGLKQLGADVDCFLGTECPPVRVKGIGGLPGGKVKLSGSISSQYLSALLMAAPLALGDVEIEIIDKLISIPYVEMTLVLMERFGVKAYHSDSWDRFYIKGGQKYKSPGNAYVEGDASSASYFLAGAAITGGTVTVQGCGTTSLQGDVKFAEVLEMMGAAVTWTDTSVTVTGPPREPYGKKHLKAVDVNMNKMPDAAMTLAVVALFADGPTAIRDVASWRVKESERMVAIRTELTKLGASVEEGPDYCIITPPEKLNITAIDTYGDHRMAMAFSLAACADVPVTIRDPGCTAKTFPNYFDVLSTFVRN
**Q.** With B4 as the molecule, how does the kcat gly [2] read?
**A.** 1.04 s⁻¹

B5: Os D2-67: rice EPSPS ortholog of Zm D2-67, SEQ ID NO: 17 (protein, listed as Oryza sativa)
chain: MRKWEEIVLQPIREISGAVQLPGSKSLSNRILLLSALSEGTTVVDNLLNSEDVHYMLEALKALGLSVEHDKVAKRAVVVGCGGRFPVEKDAKGEVQLFCGNAATAMRPLTAAVTAAGGNATYVLDGVPRMRERPIGDLVVGLKQLGADVDCFLGTECPPVRVKGIGGLPGGKVKLSGSISSQYLSALLMAAPLALGDVEIEIIDKLISLPYVEMTLRLMERFGVKAEHSDSWDRFYIKGGQKYESPGNAYVEGDASSASYFLAGAAITGGTVTVQGCGTTSLQGDVKFAEVLEMMGAKVTWTDTSVTVTGPPREPYGKKHLKAVDVNMNKMPDAAMTLAVVALFADGPTAIRDVASWRVKETERMVAIRTELTKLGASVEEGPDYCIITPPPKLNITAIDTYGDHRMAMAFSLAACADVPVTIRDPGCTRKTFPNYFDVLSTFVRN
**Q.** Which kcat gly [2] does the source give for B5 here?
**A.** 1.7 s⁻¹

B6: Os F3: rice EPSPS ortholog of Zm F3, SEQ ID NO: 18 (protein, listed as Oryza sativa)
chain: B4 chain with G54H, V217R, Y227E, A298K, A334V, A430R
**Q.** Which kcat gly [2] does the source give for B6 here?
**A.** 0.65 s⁻¹

B7: Os D2: rice EPSPS ortholog of Zm D2, SEQ ID NO: 16 (protein, listed as Oryza sativa)
chain: B5 chain
**Q.** How did the kcat gly [2] turn out when B7 was run?
**A.** 1.48 s⁻¹

B8: CP4 EPSPS: Class II EPSPS from Agrobacterium sp. strain CP4 (protein, UniProt Q9R4E4 1-455, looked up)
3-phosphoshikimate …: MSHGASSRPATARKSSGLSGTVRIPGDKSISHRSFMFGGLASGETRITGLLEGEDVINTGKAMQAMGARIRKEGDTWIIDGVGNGGLLAPEAPLDFGNAATGCRLTMGLVGVYDFDSTFIGDASLTKRPMGRVLNPLREMGVQVKSEDGDRLPVTLRGPKTPTPITYRVPMASAQVKSAVLLAGLNTPGITTVIEPIMTRDHTEKMLQGFGANLTVETDADGVRTIRLEGRGKLTGQVIDVPGDPSSTAFPLVAALLVPGSDVTILNVLMNPTRTGLILTLQEMGADIEVINPRLAGGEDVADLRVRSSTLKGVTVPEDRAPSMIDEYPILAVAAAFAEGATVMNGLEELRVKESDRLSAVANGLKLNGVDCDEGETSLVVRGRPDGKGLGNASGAAVATHLDHRIAMSFLVMGLVSENPVTVDDATMIATSFPEFMDLMAGLGAKIELSDTKAA
**Q.** What does the source list for B8?
**A.** kcat ([3]; CP4 EPSPS): 6.85 ± 0.083 s⁻¹; Ki ([3]; Ki for glyphosate): 1.97 ± 0.276 mM; Km ([3]; apparent Km, PEP present at 10 times its Km, read-out: Km S3P): 5.2 ± 0.5 µM; Km ([3]; apparent Km, S3P present at 10 times its Km, read-out: Km PEP): 15.5 ± 0.4 µM; kcat/Km*Ki ([3]; calculated with Km for PEP): 52240; Km ([3]; read-out: Km for PEP): 15.5 µM; kgly [4]: 176 ± 1.6 min⁻¹

Source: patent US20200392528A1, “IMPROVED PLANT EPSP SYNTHASES AND METHODS OF USE” (PIONEER HI-BRED INTERNATIONAL, INC., priority 2017, published 2020)
